Here are results for 1 protein from publication PMC8431773, “Novel Cold-Adapted Recombinant Laccase KbLcc1 from Kabatiella bupleuri G3 IBMiP as a Green Catalyst in Biotransformation” (International Journal of Molecular Sciences, 2021).

In general, Km refers to the substrate concentration at which the rate is half of its maximum. As a reminder, the Vmax is the rate approached at saturating substrate. As usually defined, the kcat is the maximal rate divided by the concentration of active sites. As a reminder, the kcat/Km is the turnover number divided by the Michaelis constant.

Holding throughout (experiment): purified protein
Substrate in data set [1]: COc1ccccc1O
Particulars: pH 5.5, 30 °C, 2.5-20.0 mM substrate.

Substrate in data set [2]: COc1cc(C=NN=Cc2cc(OC)c(O)c(OC)c2)cc(OC)c1O
Format: biochemical, Aureobasidium bupleuri. Particulars: pH 7.0, 30 °C, 5.5-40.0 µM substrate.

Substrate in data set [3]: COc1cc(/C=C/C(=O)O)cc(OC)c1O
It is filed as biochemical, Aureobasidium bupleuri. As to conditions: pH 6.5 (abstract prints optimum pH 6.0), 30 °C, 3.0-150 µM substrate.

Substrate in data set [4]: CCn1c(=NN=c2sc3cc(S(=O)(=O)O)ccc3n2CC)sc2cc(S(=O)(=O)O)ccc21
Format: biochemical, Aureobasidium bupleuri. Particulars: pH 3.5, 30 °C, 0.2-4.0 mM substrate.

B1: KbLcc1 (Aureobasidium bupleuri) (protein)
chain: MHLQKLSGLCLLAFASVSWADAVPGDRYLWGADRMGKMVRRATTTSKASSTTAKASTSSVKTSSVSSASSKSSSNIVASVSSSPPASSASSASSTSSLVADAACTHGPNSRACWGNGYSIKTDFDLKHPTTGNTVTYNLEITNTTCNPDGNGDMPCYLINNQFPGPTIVADWGDKVIINVKNSLQNNGTSLHWHGVRQLSSVGSDGVGGITECPIAPGQSRTYSFLATQFGTSWYHSHYSSQYGMGVVGQVVINGPSSSNYDIDLGTFPITDLYYGLANNVNEMTLHNLQNNLPPPDGSNILVNGKGKSAKGGSYSQMSLTKGKKHRLRLINTSVDNAVRVKLDGHSFTVMSADFIPIKPLTNQGWILLAVGQRYDVVFTANQTPGNYFFRAEVATDCFSGNTGKGRALFTYSEVTAAEPTDSNEVAPTNGCTELNTVPYWTQAVDQSQYAAQVKTLKTGVAPGLTTNGQNFALWNLDTRAMMVRWDRPTIQYVFEGNTSYPDPYAVIEIPTEGTWTYWLIQMGPQNPPLPHPIHLHGHDFFVLGSGAGTFDATTAVLNFANPPRRDTSILPGLGWLLISFPANNPGIWLMHCHIAWHISEGLGVQFIEAKNSIAMPDKTTFNAECDSWRTYSKNMAWPQIDSGL
notes: full ORF of 649 residues (1938 bp, intron removed) cloned from its own ATG behind alpha-factor secretion signal (pPINKalpha-HF); tag not given; secreted from Pichia pastoris (PichiaPink strain 1)
Take B1: the Km in data set [1] was 13280 µM; in data set [2], 21 µM; in data set [3], 15 µM; in data set [4], 580 µM. The Vmax in data set [1] came to 4.7 µmol/min/mg; in data set [2], 33 µmol/min/mg; in data set [3] it was 1.39 µmol/min/mg; in data set [4], 34.2 µmol/min/mg. The kcat in data set [1] is 5.45 s⁻¹; in data set [2], 38.3 s⁻¹; in data set [3], 1.61 s⁻¹; in data set [4], 39.6 s⁻¹. Also, the kcat/Km came to 410 M⁻¹ s⁻¹ in data set [1], 1.81e+06 M⁻¹ s⁻¹ in data set [2], 109000 M⁻¹ s⁻¹ in data set [3] and 68400 M⁻¹ s⁻¹ in data set [4].
